Reference: patent US20130237472A1

How the values were obtained:
TNF-α [1] = assay: competition ELISA against plate-bound TNFRI190; relative affinity from IC50
TNF-α [2] = assay: cell-based or functional assay

Substance | Result Affinity (%) relative to wild-type TNFRI126 (TNF-α [1]) [%] | Relative activity (cell based assay) (Folds) (TNF-α [2]) [fold]
Met-TNFRI126 (from UniProt P19438 41-166) (receptor) | 100 | –
Met-TNFRI171 (from UniProt P19438 41-211) (receptor) | – | 1
